Test results: patent US20100292104A1 (LAWRENCE LIVERMORE NATIONAL SECURITY, published 2010)

What follows are binders tested against Maltose Binding Protein (MBP)-N-intein fusion protein (Synechocystis sp. PCC6803, UniProt P74750 771-897) (assay: cell-based or functional assay).

Row | Binder | trans-splicing activity relative to the non-photocaged C-intein polypeptide [%]
1 | DnaE C-intein polypeptide photocaged at Gly31 (Gly31 backbone amide caged with nitroveratryl (1,2-dimethoxy-4-methyl-3-nitro-benzyl) group; C-terminal PEGylated thiol linker; Cys37 protected as S-tBu during synthesis) peptide: not shown | 10
2 | DnaE C-intein polypeptide photocaged at Gly19 (Gly19 backbone amide caged with nitroveratryl (1,2-dimethoxy-4-methyl-3-nitro-benzyl) group; C-terminal PEGylated thiol linker; Cys37 protected as S-tBu during synthesis) peptide: not shown | ~30

Second part, the binder after the results:

Row | trans-splicing activity relative to the non-photocaged C-intein polypeptide [%] | Binder
3 | ~30 | DnaE C-intein polypeptide photocaged at Gly6 (Gly6 backbone amide caged with nitroveratryl (1,2-dimethoxy-4-methyl-3-nitro-benzyl) group; C-terminal PEGylated thiol linker; Cys37 protected as S-tBu during synthesis) peptide: not shown
4 | ~60 | DnaE C-intein polypeptide photocaged at Gly11 (Gly11 backbone amide caged with nitroveratryl (1,2-dimethoxy-4-methyl-3-nitro-benzyl) group; C-terminal PEGylated thiol linker; Cys37 protected as S-tBu during synthesis) peptide: not shown
